In article doi:10.64898/2025.12.18.695077v1:

Tested on: O=P(O)(OC[C@@H](O)CO)OC[C@@H](O)CO
Assay: purified protein
Conditions: co-substrate C22:6-CoA 100 uM, pH 7.4, 37 C, 0.05% LMNG

Question: “CLN8 (FLAG-STREP-tagged, purified from human Flp-In T-REx 293 cells) (Homo sapiens)” was tested. Which Km did it give?
Answer: The Km was 570 µM.

Question: And the kcat?
Answer: The kcat was 0.8022 s⁻¹.
